According to paper PMC9672952:

Assays:
[1] = target: RseP from Lactococcus lactis IL1403, without His-tag (Lactococcus lactis IL1403)
[2] = target: RseP from Enterococcus faecium P21, without His-tag (Enterococcus faecium P21) (UniProt I3U2R6)
[3] = target: RseP from Staphylococcus haemolyticus, without His-tag (Staphylococcus haemolyticus)
[4] = target: RseP from Enterococcus faecalis V583, without His-tag (Enterococcus faecalis V583) (UniProt Q9RPP2)
[5] = target: RseP from Staphylococcus aureus ATCC 14458, without His-tag (Staphylococcus aureus ATCC 14458)
[6] = target: RseP from Staphylococcus arlettae LMGT 4134, without His-tag (Staphylococcus arlettae LMGT 4134)
[7] = target: RseP from Lactiplantibacillus plantarum WCFS1, without His-tag (Lactiplantibacillus plantarum WCFS1)
[8] = target: Truncation of EfmRseP (1–39, 139–422) Δ40–138 (Enterococcus faecium P21) (UniProt I3U2R6); assay: flow cytometry on cells; noninduced L. plantarum cells expressing the RseP variant, 1 μM FITC-labeled EntK1 in 100 μM triammonium citrate pH 6.5, 20 min, room temperature; median fluorescence intensity relative to cells expressing EfmRseP (rMFI), triplicate
[9] = target: EfmRseP with the triple alanine substitution of the HExxH motif (Enterococcus faecium P21) (UniProt I3U2R6); assay: as above
[10] = target: RseP from Lactiplantibacillus plantarum WCFS1, C-terminal 6× His-tag (Lactiplantibacillus plantarum WCFS1); assay: as above
[11] = target: EfmRseP with substitution N364A (Enterococcus faecium P21) (UniProt I3U2R6); assay: as above
[12] = target: EfmRseP with substitution D372A (Enterococcus faecium P21) (UniProt I3U2R6); assay: as above
[13] = target: RseP from Enterococcus faecium P21, C-terminal 6× His-tag (Enterococcus faecium P21) (UniProt I3U2R6); assay: as above
[14] = target: EfmRseP with substitution H18A (Enterococcus faecium P21) (UniProt I3U2R6); assay: as above
[15] = target: EfmRseP with substitution P367A (Enterococcus faecium P21) (UniProt I3U2R6); assay: as above
[16] = target: EfmRseP with substitution E19A (Enterococcus faecium P21) (UniProt I3U2R6); assay: as above
[17] = target: EfmRseP with substitution P369A (Enterococcus faecium P21) (UniProt I3U2R6); assay: as above
[18] = target: EfmRseP with substitution H22A (Enterococcus faecium P21) (UniProt I3U2R6); assay: as above
[19] = target: Fusion of LpRseP (1–201, 328–425) and EfmRseP (202–327) (Lactiplantibacillus plantarum WCFS1 | Enterococcus faecium P21) (UniProt I3U2R6); assay: as above
[20] = target: Fusion of LpRseP (1–171, 326–425) and EfmRseP (172–325) (Lactiplantibacillus plantarum WCFS1 | Enterococcus faecium P21) (UniProt I3U2R6); assay: as above
[21] = target: Fusion of EfmRseP (1–221) and LpRseP (222–425) (Enterococcus faecium P21 | Lactiplantibacillus plantarum WCFS1) (UniProt I3U2R6); assay: as above
[22] = target: Fusion of EfmRseP (1–325) and LpRseP (326–425) (Enterococcus faecium P21 | Lactiplantibacillus plantarum WCFS1) (UniProt I3U2R6); assay: as above

Substance: FITC-labeled Enterocin K1 (peptide)
- MIC50 of FITC-EntK1 (growth inhibition, microtiter plate) towards L. plantarum expressing this RseP [1]: > 20 µM
- MIC50 of FITC-EntK1 (growth inhibition, microtiter plate) towards L. plantarum expressing this RseP [2]: 0.15 µM
- MIC50 of FITC-EntK1 (growth inhibition, microtiter plate) towards L. plantarum expressing this RseP [3]: > 20 µM
- MIC50 of FITC-EntK1 (growth inhibition, microtiter plate) towards L. plantarum expressing this RseP [4]: 0.6 µM
- MIC50 of FITC-EntK1 (growth inhibition, microtiter plate) towards L. plantarum expressing this RseP; footnote: low expression may contribute [5]: > 20 µM
- MIC50 of FITC-EntK1 (growth inhibition, microtiter plate) towards L. plantarum expressing this RseP; footnote: low expression may contribute [6]: > 20 µM
- MIC50 of FITC-EntK1 (growth inhibition, microtiter plate) towards L. plantarum expressing this RseP [7]: > 20 µM
- rMFI % (relative median fluorescence intensity) [8]: 7.4%
- rMFI % (relative median fluorescence intensity) [9]: 0.5%
- rMFI % (relative median fluorescence intensity) [10]: 0.41%
- rMFI % (relative median fluorescence intensity) [11]: 83.4%
- rMFI % (relative median fluorescence intensity) [12]: 80.6%
- rMFI % (relative median fluorescence intensity) [13]: 100%
- rMFI % (relative median fluorescence intensity) [14]: 61.6%
- rMFI % (relative median fluorescence intensity) [15]: 89.1%
- rMFI % (relative median fluorescence intensity) [16]: 65.4%
- rMFI % (relative median fluorescence intensity) [17]: 84.4%
- rMFI % (relative median fluorescence intensity) [18]: 59%
- rMFI % (relative median fluorescence intensity) [19]: 54.8%
- rMFI % (relative median fluorescence intensity) [20]: 78%
- rMFI % (relative median fluorescence intensity) [21]: 37.6%
- rMFI % (relative median fluorescence intensity) [22]: 97.6%
